From publication PMC6588604

Molecular target: NLuc-GhBOP1 (Gossypium hirsutum)

CLuc-GhTGA3 (natural protein)
GUS staining intensity from GhPR1pro:GUS in tobacco leaves: 35S:GhTGA3 + 35S:GhBOP1 + reporter against 35S:GhTGA3 + reporter: 2 fold
